Assay results taken from patent US20150098939A1 (Sanofi, published 2015).
Substitutions are numbered along the chain they refer to.

B1: humanized anti-GPVI Fab VL1/VH2 (Fab, V domains shown)
VH: QVQLQESGPGLVAPSQSLSITCTVSGFSLTGYGVNWVRQPPSRGLEWLGMIWGDGSTDYQSTLKSRLSISKDNSKSQVFLKMNSLTTDDTARYYCARDLPMDYWGQGTSVTVSS
VL: DIQMTQSPSSLSASVGGRVTITCKASQDINKYIAWYQHKPGKGPSLLIHYTSTLQPGVPSRFSGSGSGRDYSFSISNLQPEDIATYYCLQYANLLTFGGGTKLEIKR
notes: Recombinant Fab: VH fused to CH1 of human IGHG1 (Q569F4), HC ends in DKTHT; VL fused to human constant kappa (Q502W4); also called VL1 with VH2
B2: humanized anti-GPVI Fab VL1/VH1 (Fab, V domains shown)
VH: B1 VH with N73T
VL: B1 VL
notes: Recombinant Fab: VH fused to CH1 of human IGHG1 (Q569F4), HC ends in DKTHT; VL fused to human constant kappa (Q502W4); also called VL1 with VH1
B3: humanized anti-GPVI Fab VL1/VH3 (Fab, V domains shown)
VH: B1 VH with Q1E, Q5L, Q16G, S42G, R43K, T86R, Q106L
VL: B1 VL
notes: Recombinant Fab: VH fused to CH1 of human IGHG1 (Q569F4), HC ends in DKTHT; VL fused to human constant kappa (Q502W4); also called VL1 with VH3
B4: humanized anti-GPVI Fab VL1/VH4 (Fab, V domains shown)
VH: B1 VH with G31Y
VL: B1 VL
notes: Recombinant Fab: VH fused to CH1 of human IGHG1 (Q569F4), HC ends in DKTHT; VL fused to human constant kappa (Q502W4); also called VL1 with VH4
B5: humanized anti-GPVI Fab VL1/VH5 (Fab, V domains shown)
VH: B1 VH with Y103E
VL: B1 VL
notes: Recombinant Fab: VH fused to CH1 of human IGHG1 (Q569F4), HC ends in DKTHT; VL fused to human constant kappa (Q502W4); also called VL1 with VH5
B6: humanized anti-GPVI Fab VL2/VH2 (Fab, V domains shown)
VH: B1 VH
VL: B1 VL with N93H
notes: Recombinant Fab: VH fused to CH1 of human IGHG1 (Q569F4), HC ends in DKTHT; VL fused to human constant kappa (Q502W4); also called VL2 with VH2
B7: humanized anti-GPVI Fab VL3/VH2 (Fab, V domains shown)
VH: B1 VH
VL: B1 VL with N93L
notes: Recombinant Fab: VH fused to CH1 of human IGHG1 (Q569F4), HC ends in DKTHT; VL fused to human constant kappa (Q502W4); also called VL3 with VH2
B8: humanized anti-GPVI Fab VL3/VH4 (Fab, V domains shown)
VH: B1 VH with G31Y
VL: B1 VL with N93L
notes: Recombinant Fab: VH fused to CH1 of human IGHG1 (Q569F4), HC ends in DKTHT; also called VL3 with VH4
B9: Fab 390-G (recombinant glycosylated Fab of clone 390) (Fab, V domains shown)
VH: B1 VH with Q5K, S42G, R43K, Q60N, T86Q
VL: B1 VL with V15L, R18K, V58I, Q79E
modifications: additional N-glycosylation motif in VH kept
notes: Chimeric Fab from HEK293: VL fused to human constant kappa (IGKC, Q502W4), VH to CH1 of human IGHG1 (Q569F4)
B10: Fab 390-nG (recombinant non-glycosylated Fab of clone 390) (Fab, V domains shown)
VH: B1 VH with Q5K, S42G, R43K, T86Q
VL: B1 VL with V15L, R18K, V58I, Q79E
notes: Chimeric Fab from HEK293: VL fused to human constant kappa (IGKC, Q502W4); also called ANTI-GPVI Fab 390-nG construct

Tests used:
human GPVI on platelets = target: T1, human GPVI on platelets (human, UniProt Q9HCN6 21-339); experiment: cell-based or functional assay
T1 sequence (looked up): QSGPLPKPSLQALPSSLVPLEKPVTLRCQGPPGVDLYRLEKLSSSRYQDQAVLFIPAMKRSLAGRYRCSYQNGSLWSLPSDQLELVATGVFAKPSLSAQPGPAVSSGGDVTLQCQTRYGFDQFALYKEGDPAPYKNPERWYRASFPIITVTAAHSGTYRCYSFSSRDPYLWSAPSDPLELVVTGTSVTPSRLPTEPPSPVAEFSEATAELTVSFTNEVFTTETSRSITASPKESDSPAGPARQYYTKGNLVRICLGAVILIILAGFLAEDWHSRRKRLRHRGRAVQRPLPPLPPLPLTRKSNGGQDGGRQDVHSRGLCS

[1] = target: T2, human GPVI protein, soluble extracellular domain (D1 and D2) (human, UniProt Q9HCN6 21-267); experiment: SPR (Biacore 3000), human GPVI immobilised, Fab analyte
T2 construct: extracellular domain; also called hGPVI; human glycoprotein VI
T2 sequence (looked up): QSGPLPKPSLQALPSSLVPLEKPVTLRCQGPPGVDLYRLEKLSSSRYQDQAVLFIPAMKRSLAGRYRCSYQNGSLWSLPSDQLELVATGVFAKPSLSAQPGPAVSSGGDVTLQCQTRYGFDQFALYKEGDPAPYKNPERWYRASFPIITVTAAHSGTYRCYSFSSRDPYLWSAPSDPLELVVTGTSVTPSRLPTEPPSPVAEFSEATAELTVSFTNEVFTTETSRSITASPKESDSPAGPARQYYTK
Experimental: Surface plasmon resonance technology on a Biacore 3000 (GE Healthcare) was used for detailed kinetic characterisation of purified antibody fragments. An assay with immobilised human GPVI was used. Typically, 300 RU of GPVI were immobilised on a research grade CM5 chip by amine reactive coupling, resulting in an Rmax of 200 RU for the bound antibody fragment. Binding kinetics were measured over a concentration range between 3.2 to 112 nM in HBS-EP (10 mM HEPES pH 7.4, 150 mM NaCl, 3 mM EDTA, 0.005% Surfactant P20) at a flow rate of 30 μl/min. Chip surfaces were regenerated with 10 mM glycine pH2.0. Kinetic parameters were analysed and calculated in the BIAevaluation program package (version 4.1) using a flow cell without immobilised GPVI as reference. A 1:1 binding model with mass transfer was applied for a global fit of the data for curves corresponding to analyte concentrations from 3-56 nM of Fab fragment.
Note that the Biacore assay used to measure the data in this example is different in terms of immobilized binding partner (GPVI versus the mAb/Fab fragment) and this leads to the different Biacore affinities as reported in Table 5.

hGPVI-hFc fusion protein [2] = target: T3, hGPVI-hFc fusion protein (human); experiment: DELFIA competition assay: Fab preincubated with GPVI-Fc (3 µg/ml), binding to collagen-coated plate, Test 1
T3 construct: also called GPVI-Fc; human GPVI-Fc fusion protein
Experimental: (§1) Collagen coated 384 well plates (Pierce) were blocked with 3% BSA for 2 h. Increasing concentrations of anti GPVI Fab fragments (0.3-20 μg/ml) were incubated with recombinant GPVI (Fusion protein of the extracellular domain of GPVI and Fc-Part of human IgG; 3 μg/ml). The GPVI-Fab mixture was added to collagen coated plates and incubated for 1 h at RT. 384 well plates were washed (DELFIA wash buffer, Perkin Elmer) five times and Eu-labelled anti-human IgG (100 ng/ml Perkin Elmer) was added. Following 1 h incubation at room temperature plates were washed again five times, enhancement solution (Perkin Elmer) was added and incubated for 10 min. Fluorescence was detected at 360/612 nm using a Tecan Ultra reader. Shown in Table 15 are examples of the inhibitory effect of recombinantly produced anti-GPVI Fab fragments on GPVI collagen binding.

hGPVI-hFc fusion protein [3] = target: T3, hGPVI-hFc fusion protein; experiment: DELFIA competition assay: Fab preincubated with GPVI-Fc (3 µg/ml), binding to collagen-coated plate, Test 2
Experimental: as §1

hGPVI-hFc fusion protein [4] = target: T3, hGPVI-hFc fusion protein; experiment: DELFIA competition assay: Fab preincubated with GPVI-Fc (3 µg/ml), binding to collagen-coated plate, Test 3
Experimental: as §1

[5] = target: T2, human GPVI protein, soluble …; experiment: SPR (Biacore 3000), Fab immobilised, human GPVI analyte
Experimental: Surface plasmon resonance technology on a Biacore 3000 (GE Healthcare) was used for detailed kinetic characterization of purified antibody fragments. A direct binding assay was used with the anti-GPVI Fab as the ligand and human GPVI as analyte. Typically, 500 RU of anti-GPVI Fab were immobilized on a research grade CM5 chip by amine reactive coupling, resulting in an Rmax of 200 RU for the bound GPVI molecule. Binding kinetics were measured over a concentration range typically between 0.8 to 208 nM in HBS-EP (10 mM HEPES pH 7.4, 150 mM NaCl, 3 mM EDTA, 0.005% Surfactant P20) at a flow rate of 30 μl/min. Chip surfaces were regenerated with 10 mM glycine pH 2.0. Kinetic parameters were analyzed and calculated in the BIAevaluation program package (version 4.1) using a flow cell without immobilized Fab as reference. A 1:1 binding model with mass transfer was applied for a global fit of the data for curves.

| Binder | IC50 for inhibition of collagen induced platelet aggregation (human PRP), Test 1 (human GPVI on platelets) | IC50 for inhibition of collagen induced platelet aggregation (human PRP), Test 2 (human GPVI on platelets) | IC50 for inhibition of collagen induced platelet aggregation (human PRP), Test 3 (human GPVI on platelets) | Kd [1] | koff [1] | kon [1] | IC50 (hGPVI-hFc fusion protein [2]) | IC50 (hGPVI-hFc fusion protein [3]) | IC50 (hGPVI-hFc fusion protein [4]) | Kd [5] | koff [5] | kon [5] |
| --- | --- | --- | --- | --- | --- | --- | --- | --- | --- | --- | --- | --- |
| B1 | 2.3 µg/mL | 2 µg/mL | 1.1 µg/mL | 0.2 nM | 3e-05 s⁻¹ | 113000 M⁻¹ s⁻¹ | 1.17 µg/mL | 0.82 µg/mL |  |  |  |  |
| B2 | 1.5 µg/mL | 2.3 µg/mL |  | 0.4 nM | 4e-05 s⁻¹ | 111000 M⁻¹ s⁻¹ | 1.1 µg/mL | 0.75 µg/mL | 1 µg/mL |  |  |  |
| B3 | 1.7 µg/mL | 1.5 µg/mL | 1.5 µg/mL | 0.1 nM | 2e-05 s⁻¹ | 148000 M⁻¹ s⁻¹ | 0.63 µg/mL | 1.24 µg/mL | 0.87 µg/mL |  |  |  |
| B4 | 1.6 µg/mL | 1.8 µg/mL | 1.2 µg/mL | 0.2 nM | 2e-05 s⁻¹ | 124000 M⁻¹ s⁻¹ | 1.01 µg/mL | 1.14 µg/mL | 1.06 µg/mL |  |  |  |
| B5 | 1.9 µg/mL | 2.3 µg/mL | 1.2 µg/mL | 0.4 nM | 3e-05 s⁻¹ | 81000 M⁻¹ s⁻¹ | 1.41 µg/mL | 1.58 µg/mL | 1.24 µg/mL |  |  |  |
| B6 | 1.4 µg/mL | 2.4 µg/mL | 2.3 µg/mL | 0.3 nM | 3e-05 s⁻¹ | 108000 M⁻¹ s⁻¹ | 0.81 µg/mL | 0.73 µg/mL | 1.05 µg/mL |  |  |  |
| B7 | 1.9 µg/mL | 0.9 µg/mL | 2.1 µg/mL | 0.2 nM | 3e-05 s⁻¹ | 132000 M⁻¹ s⁻¹ | 0.67 µg/mL | 0.9 µg/mL | 1.04 µg/mL |  |  |  |
| B8 | 1 µg/mL | 2.3 µg/mL | 2 µg/mL | 0.3 nM | 4e-05 s⁻¹ | 151000 M⁻¹ s⁻¹ | 0.72 µg/mL | 0.72 µg/mL | 1.02 µg/mL |  |  |  |
| B9 |  |  |  |  |  |  |  |  |  | 0.05 nM | 1.5e-05 s⁻¹ | 320000 M⁻¹ s⁻¹ |
| B10 |  |  |  | 0.2 nM | 2e-05 s⁻¹ | 102000 M⁻¹ s⁻¹ |  |  |  | 0.06 nM | 2.2e-05 s⁻¹ | 348000 M⁻¹ s⁻¹ |
